Test results taken from patent publication US20260159583A1 (CHIA TAI TIANQING PHARMACEUTICAL GROUP, published 2026).
Numbering of substitutions follows the chain as printed.

B1: mouse anti-hGPRC5D antibody mu-128 (antibody, V domains shown)
VH: DVQLVESGGGLVQPGGSRKVSCAASGFTFSSFGMHWVRQAPEKGLEWVAYISRGSSTIYYADTVKGRFTISRDNPKNTLFLQMTSLRSEDTAMYYCARSGYGSSSYYFDYWGQGTTLTVSS
VL: ENVLTQSPAIMSASPREKVTMTCRASSSIRSSYLHWYQQKSGASPKLWIYSTSNLASGVPARFSGSGSGTSYSLTISSVEAEDAATYYCQQFSGYPLTFGGGTKLEIK
notes: Tested as subcloned hybridoma culture supernatant
B2: mouse anti-hGPRC5D antibody mu-169 (antibody, V domains shown)
VH: EVKLVESGGGLVKPGASLKLSCAASGFTFSNYGMSWVRQTSDKRLEWVASISSGGGRIYYPDNVKGRFTISRENAKNTLYLQMSSLKSEDTALYYCTRHAMDNWGQGTSVIVSS
VL: QIVLTQSPAIMSASPGEKVTMTCSASSSVSNMYWYQQKSGTSPKRWIYDTSKLASGVPARFSGSGSGTSYSLTISSMEAEDASTYYCQQWSSNPLTFGAGTTLELK
notes: as for B1
B3: mouse anti-hGPRC5D antibody mu-105 (antibody, V domains shown)
VH: EVQLQQSGPELVKPGASVKMSCKASGYTFTDYYMNWVKQSHGKSLEWIGYIYPNNGGTGYNQRFKGKATLTADKSSSTAYMELRSLTSEDSAVYYCARWGGTRLGYYAMDYWGQGTSVTVSS
VL: DIVMTQSQKFMSTSVGDRVSVTCKASQNVGTNVVWYQQKPGQSPKLLIYWASTRHTGVPDRFTGSGSGTDFTLTISNVQSEDLADYFCQQYSRYPYTFGGGTKLEIK
notes: as for B1
B4: mouse anti-hGPRC5D antibody mu-89 (antibody, V domains shown)
VH: EVQLVESGGDLVKPGGSLKLSCAASGFTFSSYGMSWVRQTPDKRLEWVATISSGGSYTYYPDSVKGRFTFSRDNAKNTLYLQMSSLKSEDTAMYYCVRQALRYHMDSWGQGTSVTVSS
VL: B3 VL with V34A, L46A, W50S, T53Y, H55Y, T56S, Y86F, S92Y, R93S, Y96W
notes: as for B1
B5: mouse anti-hGPRC5D antibody mu-131 (antibody, V domains shown)
VH: EVQLQQSGPELVKPGASVKMSCKASGYTFTNYVMHWVKQKPGQGLEWIGYFNPYNDGTNYNEKFKGKATLTSDKSSNTAYMELSSLTSEDSAVYYCARGGVRRYFDVWGAGTTVTVSS
VL: DIQMTQSPSSLSASLGERVSLTCRASQDIGSNLNWLQLGPDGTIKRLIYATFSLDSGVPKRFSGSRSGSDYSLTISSLESEDFVDYYCQQYANFPPTFGGGTKLEIK
notes: as for B1

Target: T1, human GPRC5D protein (human, UniProt Q9NZD1 1-345)
T1 construct: also called hGPRC5D
Test: FACS, subclone supernatant on H929 cells
Procedure: An H929 (i.e., NCI-H929) cell suspension at a cell concentration of 3× 10⁵ cells/mL was plated into a 96-well U-bottom plate at 100 μL/well. The subcloned cell culture supernatant was added at 100 μL/well or an equal volume of culture medium (hereinafter referred to as Medium) was added. The mixture was mixed well, and then incubated at 4° C. for 1 h. The cells were washed with PBS containing 2% (by volume) of FBS. An AlexaFluor488-conjugated goat anti-mouse IgG+IgM (H+L) antibody (Jackson Immuno Research, Cat. No.: 115-545-044) was added, and the mixture was incubated at 4° C. for 1 h. The cells were washed with PBS containing 2% (by volume) of FBS and then resuspended. Fluorescence signals were detected on a flow cytometer (Sartorius, IQue3). The binding of the mouse anti-hGPRC5D antibody to H929 cells was analyzed by the mean fluorescence intensity (MFI) of staining.

T1 sequence (Q9NZD1 whole entry): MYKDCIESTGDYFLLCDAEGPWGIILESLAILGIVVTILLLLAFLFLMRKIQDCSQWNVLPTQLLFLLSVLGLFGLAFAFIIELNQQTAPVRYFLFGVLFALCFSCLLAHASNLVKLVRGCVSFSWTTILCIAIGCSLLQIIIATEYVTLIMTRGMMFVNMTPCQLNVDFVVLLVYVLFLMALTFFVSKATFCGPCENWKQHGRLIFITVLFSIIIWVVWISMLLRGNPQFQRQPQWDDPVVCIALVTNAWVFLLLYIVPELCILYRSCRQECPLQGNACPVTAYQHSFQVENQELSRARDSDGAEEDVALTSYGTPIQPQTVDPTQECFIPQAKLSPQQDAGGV

| Binder | MFI [MFI] |
| --- | --- |
| B1 | 15700 |
| B2 | 59300 |
| B3 | 13200 |
| B4 | 11900 |
| B5 | 12800 |
